Our source for the EC50 values is publication PMC9061721 (2022).

For orientation: EC50 means the concentration needed to bring the measured effect to its halfway point. A lower EC50 goes with an effect from little substance.

Assay [1] has as its target SC/09 H1N1 HA protein (A/Sichuan/01/2009) (influenza A virus A/Sichuan/01/2009 …). As to the kind of experiment: ELISA. For orientation: ELISA stands for enzyme-linked immunosorbent assay.
The target in assay [2] is A/Hong Kong/01/1968 (H3N2) HA (influenza A virus A/Hong Kong/01/1968 …, UniProt Q91MA7). As to the kind of experiment: ELISA.

B1: 28-12 (antibody, V domains shown)
VH: EVQLVESGGGLVQPGGSLRLSCAASGFTFSTYNMNWVRQAPGKGLEWLSYISTSSNTIYYADSVKGRFTISRDNAKNSLFLQMNSLRDEDTAVYYCARDRGCSSTNCYVVGYYFYGMDVWGQGTTVTVSS
VL: DIQMTQSPSSVSASVGDRVTITCRASQGISSYLAWYQLKPGRAPKLLIYGATRLQSGVPSRFSGSGSGTDFTLTISGLQPEDFATYHCQQADSFPLTFGQGTRLEIK
B1: the EC50 in assay [1] was 0.0647 µg/mL; in assay [2], 0.0754 µg/mL.
